Measured values reported in paper doi:10.1101/2024.12.23.629660.

Target: Arabidopsis thaliana Fatty Acid Thioesterase A (FatA) (Arabidopsis thaliana) (UniProt Q42561)
Assay: crystal structure

Substance: Arabidopsis thaliana Fatty Acid Thioesterase A (FatA) (from UniProt Q42561 75-362) (enzyme)
- stoichiometry N: 2
